Four molecules from US7208311B2, “Catalytic domain of ADAM33 and methods of use thereof” (Schering Corporation, priority 2002, dated 2007) can be followed below.

The target of one data set is human ADAM17 (Homo sapiens, UniProt P78536). The data set can be described thus: Inhibition of human ADAM17 by human TIMPs, fluorogenic pro-TNF-alpha substrate. The data set is classed as biochemical. As to conditions: ADAM17 1 nM, substrate 25 μM. How it is done:
Inhibition of human ADAM17 by human TIMPs was determined as follows: ADAM17 (1 nM) was pre-incubated with serial dilutions of TIMP-1 (0–4 μM), TIMP-2 (0–1 μM), TIMP-3 (0–0.2 μM), or TIMP-4 (0–4 μM), in assay buffer (25 mM HEPES, pH7.5, 5 mM CaCl2, 0.1 mM ZnCl2) for 1 h at RT, followed by addition of the fluorogenic pro-TNF-alpha substrate (25 μM), K(mca)SPLAQAVRSSSRK(dnp) (SEQ ID NO: 46). The reaction velocities were measured using the GEMINI fluorescence reader at 320/380 nm for 1 h and inhibition dissociation constants were calculated by fitting the data to Morrison equation (TIMP-2 and TIMP-3) or Michaelis-Menten equation (TIMP-1 and TIMP-4) as described above.

Data set [1] concerns the target T1, ADAM33 (Homo sapiens, UniProt Q9BZ11).
T1 construct: made in house; host or cells: Drosophila melanogaster S2 cells
T1 sequence (Q9BZ11 204-409 limits assumed): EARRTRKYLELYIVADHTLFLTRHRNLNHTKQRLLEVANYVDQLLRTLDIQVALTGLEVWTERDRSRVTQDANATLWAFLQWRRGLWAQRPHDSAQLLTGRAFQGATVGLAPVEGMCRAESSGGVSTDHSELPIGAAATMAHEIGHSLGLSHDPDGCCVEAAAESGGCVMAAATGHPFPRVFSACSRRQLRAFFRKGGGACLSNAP
The data set can be described thus: HPLC inhibition assay, ADAM33cat with KL-1 peptide substrate. As to conditions: at 2 µM. The data set is classed as biochemical. How it is done:
The inhibition dissociation constants (Ki) for inhibitors were determined as follows: an HPLC assay was performed in the presence or absence of inhibitors for 2 h at RT using ADAM33cat (80 nM) and KL-1 peptide substrate (100 μM). For testing tissue inhibitor of metalloproteinases (TIMPs), ADAM33 and human TIMPs were pre-incubated for 1 h at RT. […] Initial velocities were calculated by dividing cleaved product over reaction time. The initial velocities were plotted as a function of inhibitor concentration. For tight binding inhibitors (IK682, TIMP-3), the apparent inhibitor dissociation constants (Ki app values) were calculated by fitting the curve to the following modified Morrison's equation: vi=vo{[(Eo−Io−Ki^app)^2+4 Ki^appEo]^1/2+(Eo−IoKI^app)}/2Eo where Ki^app=Ki(1+S/Km), vo is the uninhibited initial velocity, vi is the initial velocity in the presence of inhibitor at any given inhibitor concentration Io, and Eo is initial enzyme concentration. When the substrate concentration S<<Km, Ki^app is approximately equal to Ki.

In data set [2] the test system is ADAM33. Briefly: MCF 12-mer peptide proteolysis assay (HPLC). Format: biochemical, human. The note with it: MCF peptide substrate. How it is done:
A 12-mer peptide (i.e. Ac-LPPVAASSLNRD-NH2; SEQ ID NO: 48), derived from human mast-cell growth factor (accession number NP-038626) was synthesized as a substrate for ADAM33. Reactions were initiated by addition of 200 nM enzyme to appropriate amounts of substrate in assay buffer (25 mM HEPES, pH 7.5, 0.5 M NaCl, 0.1% n-octyl-β-D-glucoside), incubated at 22° C. for 2 h and subsequently quenched with 1% TFA. When inhibitors were evaluated, the enzyme and inhibitors were preincubated at 22° C. for 30 min prior to initiation of the assays. Substrate and products were separated by HPLC using a C-8 reverse phase column (Zobrax 3.5 μm, 4.6 mmD/5 cmL, Agilent, Palo Alto, Calif., 0.1% TFA acetonitrile/H2O). Elution was monitored at 214 nm, and peaks identified by mass spectroscopy. Initial rates of proteolysis were determined using reactions in which less than 10% of the substrate was consumed. kcat/Km values were calculated assuming the enzymes were 100% active.
Production of ADAM33 and mutants thereof were produced essentially as described in Example 1. Proteolytic assays and methods for determining catalytic rates are essentially as described in Examples 2 and 3.

Chain of human ADAM17 (P78536 215-824): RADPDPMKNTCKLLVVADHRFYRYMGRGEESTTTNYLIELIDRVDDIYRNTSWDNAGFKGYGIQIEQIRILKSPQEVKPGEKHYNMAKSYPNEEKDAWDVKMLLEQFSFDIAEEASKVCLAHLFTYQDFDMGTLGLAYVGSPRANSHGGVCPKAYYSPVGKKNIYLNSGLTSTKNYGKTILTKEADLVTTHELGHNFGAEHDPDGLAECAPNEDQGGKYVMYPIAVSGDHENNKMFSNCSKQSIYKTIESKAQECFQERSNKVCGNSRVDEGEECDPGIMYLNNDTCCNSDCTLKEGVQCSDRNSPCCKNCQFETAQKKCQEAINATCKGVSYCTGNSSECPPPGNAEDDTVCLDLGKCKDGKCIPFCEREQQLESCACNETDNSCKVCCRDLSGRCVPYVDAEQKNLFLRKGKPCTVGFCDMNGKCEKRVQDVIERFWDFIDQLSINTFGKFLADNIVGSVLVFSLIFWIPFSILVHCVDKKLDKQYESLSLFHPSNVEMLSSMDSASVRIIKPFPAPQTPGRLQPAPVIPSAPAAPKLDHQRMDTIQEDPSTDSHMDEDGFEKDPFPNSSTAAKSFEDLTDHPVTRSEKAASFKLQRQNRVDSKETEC

For the molecule “TIMP-1: human tissue inhibitor of metalloproteinases 1, endogenous inhibitor of MMPs and ADAMs”, the “inhibition of human ADAM17 activity” value with human ADAM17 was “weakly inhibited”. For the same molecule, in the data set with ADAM33 [1], the “inhibition of ADAM33 activity” value is reported as “no inhibition”.

B1: pro-CAT single chain zymogen form: single chain zymogen form of ADAM33 (R203T/R207S; SEQ ID NO:54) (protein)
chain: LQGHIPGQPVTPHWVLDGQPWRTVSLEEPVSKPDMGLVALEAEGQELLLELEKNHRLLAPGYIETHYGPDGQPVVLAPNHTDHCHYQGRVRGFPDSWVVLCTCSGMSGLITLSRNASYYLRPWPPRGSKDFSTHEIFRMEQLLTWKGTCGHRDPGNKAGMTSLPGGPQSRGRTEARSTRKYLELYIVADHTLFLTRHRNLNHTKQRLLEVANYVDQLLRTLDIQVALTGLEVWTERDRSRVTQDANATLWAFLQWRRGLWAQRPHDSAQLLTGRAFQGATVGLAPVEGMCRAESSGGVSTDHSELPIGAAATMAHEIGHSLGLSHDPDGCCVEAAAESGGCVMAAATGHPFPRVFSACSRRQLRAFFRKGGGACLSNAP
modifications: homo sapiens
For the molecule B1, in the data set on ADAM33 [2], the “catalytic efficiency relative to CAT domain” value is recorded as “no significant difference”.

B2: TIMP4: human tissue inhibitor of metalloproteinases 4, endogenous inhibitor of MMPs and ADAMs (protein)
chain: CSCAPAHPQQHICHSALVIRAKISSEKVVPASADPADTEKMLRYEIKQIKMFKGFEKVKDVQYIYTPFDSSLCGVKLEANSQKQYLLTGQVLSDGKVFIHLCNYIEPWEDLSLVQRESLNHHYHLNCGCQITTCYTVPCTISAPNECLWTDWLLERKLYGYQAQHYVCMKHVDGTCSWYRGHLPLRKEFVDIVQP
As to B2, in the data set with human ADAM17, the “inhibition of human ADAM17 activity” value is given as “inhibited”.

B3: TIMP-3: human tissue inhibitor of metalloproteinases 3, endogenous inhibitor of MMPs and ADAMs (protein)
chain: CTCSPSHPQDAFCNSDIVIRAKVVGKKLVKEGPFGTLVYTIKQMKMYRGFTKMPHVQYIHTEASESLCGLKLEVNKYQYLLTGRVYDGKMYTGLCNFVERWDQLTLSQRKGLNYRYHLGCNCKIKSCYYLPCFVTSKNECLWTDMLSNFGYPGYQSKHYACIRQKGGYCSWYRGWAPPDKSIINATDP
For the molecule B3, the “inhibition of human ADAM17 activity” value in the data set with human ADAM17 is on record as “inhibited”.
